Data on twelve molecules can be found in patent publication US20260027220A1, “EPHA2 BCL-XL INHIBITOR ANTIBODY-DRUG CONJUGATES AND METHODS OF USE THEREOF” (Novartis AG, priority 2022, published 2026).

Numbering of substitutions follows the chain as printed. Names and notes keep the numbering of the source. Values joined by “and” are separate entries in the source; they are usually repeats but may differ in a detail not shown here. Equal values may be shown once.

Test [1] has as its target T1, human EphA2 expressed on HKB-11 cells (human, UniProt P29317 24-976).
T1 construct: The HKB-11 cells were transduced to overexpress EphA2; also called HKB-11 EphA2+ cell line
As to the kind of experiment: FACS titration on HKB-11 cells transduced to overexpress EphA2 (200 to 0.003 nM antibody, Alexa Fluor 647 anti-human IgG, MFI of live cells).
Method: (§1) The binding affinity of EphA2 antibodies on cells was evaluated using flow cytometry (FACS). […] Cell lines were cultured in media that is optimal for their growth at 5% CO₂, 37° C. in a tissue culture incubator. Cell viability and cell density were determined using a cell counter (Vi-Cell XR Cell Viability Analyzer, Beckman Coulter). […] All subsequent steps were performed on ice and in ice cold FACS buffer to prevent internalization of the receptor. Cells were resuspended in 100 μL of FACS buffer containing an 11-point serial dilution of test antibodies at final concentrations of 200 nM-0.003 nM. Cells were incubated at 4° C. for 45 minutes. Following incubation, cells were washed three times in ice cold PBS at 1000 rpm for 5 minutes with 200 μL FACS buffer. […] Cells were incubated in the dark at 4° C. for 45 minutes. Following incubation, cells were washed three times in ice cold PBS at 1000 rpm for 5 minutes with 200 μL FACS buffer. Cells were then resuspended in 100 μL FACS buffer containing DAPI (ThermoFisher, #D1306) staining followed by readout via flow cytometry (MACSQuant® Analyzer 10). Data was analyzed using FlowJo v10.8.1 to obtain MFI (Mean Fluorescence Intensity) on live cells. EC₅₀ values were calculated using the GraphPad Prism 9 software. There were three rounds of experiments performed to evaluate three groupings of EphA2 antibodies. […]

Test [2] deals with T2, human EphA2 ectodomain (human, UniProt P29317 24-537).
T2 construct: Soluble ectodomain used as the SPR analyte
Nature of the test: SPR (Biacore 8k), Fab-capture, 37C, 1:1 model. (SPR reads the build-up and loss of mass on a sensor chip optically.)
Method: (§2) A human Fab capture method was utilized in order to determine kinetics for the antibodies. […] Each channel has two flow cells. The reference flow cell contained only immobilized anti-Fab, whereas the reaction flow cell captured anti-EphA2 IgG through anti-Fab. HBS-EP+ Buffer, pH 7.6 was used as the running buffer. The soluble human, mouse and cyno EphA2 ectodomain flowed over both flow cells on 8 channels. The EphA2 ectodomain concentration started at 50 nM and was serially diluted at one part to one part (1:1) in the running buffer for six concentrations. The analysis chamber was kept at 37° C. Regeneration was performed at the end of each sample washing with the solution of 10 mM Glycine-HCl, pH 2.1 provided in the kit.
(§3) The data were analysed using the Biacore Insight Evaluation Software. Double reference subtraction was completed to generate the final data. The raw data was fitted to a 1:1 binding model, with parameter(s) Rₘₐₓ set to local.

The target of test [3] is T3, mouse EphA2 ectodomain (mouse, UniProt Q03145 26-538).
T3 construct: extracellular domain
As to the kind of experiment: SPR (Biacore 8k), Fab-capture, 37C, 1:1 model.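 Further: Anti-EphA2 IgG captured via immobilized anti-Fab, soluble EphA2 ectodomain as analyte at six twofold dilutions from 50 nM, HBS-EP+ pH 7.6 running buffer, double reference subtraction.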
Method: as §2, §3

The target of test [4] is T4, cyno EphA2 ectodomain (cyno, UniProt Q1KL86 25-537).
T4 construct: extracellular domain
Nature of the test: SPR (Biacore 8k), Fab-capture, 37C, 1:1 model.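 Further: Anti-EphA2 IgG captured via immobilized anti-Fab, soluble EphA2 ectodomain as analyte at six twofold dilutions from 50 nM, HBS-EP+ pH 7.6 running buffer, double reference subtraction.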
Method: as §2, §3

For test [5], the target named is T1, human EphA2 expressed on HKB-11 cells. As to the kind of experiment: KinExA avid equilibrium KD on cells, average of replicates.
Method: (§4) Free antibody in equilibrium titration reactions were measured by KinExA using a KinExA 3200, Autosampler (Sapidyne). Data were analyzed using KinExA Pro 4-5-X (Sapidyne).
(§5) Anti-EphA2 antibody was diluted in PBS with 10% HI-FBS and 0.04% sodium azide to 2× the final concentration of binding sites needed for equilibrium titration. […] Cells and antibody were combined 1:1 in an eppendorf tube and incubated overnight, 4° C., rotating. Buffer and antibody alone samples were included. Cells were pelleted and supernatants were transferred to a 2 ml 96-well deep well plate covered with pierceable film.
Data were analyzed by n-Curve Analysis.
Test [6] has the same target. Nature of the test: KinExA apparent (avid) equilibrium KD on human EphA2 HKB-11 cells. (In general: A kinetic exclusion assay measures how much of one partner remains free in solution.)
Method: as §4, §5
Data were analyzed by n-Curve Analysis.
Test [7] has the same target. Nature of the test: flow cytometry on HKB-11 cells overexpressing EphA2; lot DE-54-AX20. (Flow cytometry measures light scatter and fluorescence of single cells or particles in a stream.)
Method: as §1
The target is the same in test [8]. Nature of the test: flow cytometry on HKB-11 cells overexpressing EphA2; lot VE-39-AK34.
Method: as §1
The target is the same in test [9]. Nature of the test: flow cytometry on HKB-11 cells overexpressing EphA2; lot ZE-39-AG34.
Method: as §1
For test [10] the target is unchanged. As to the kind of experiment: flow cytometry on HKB-11 cells overexpressing EphA2; lot ZF-74-CQ11.
Method: as §1
In test [11] the target is T3, mouse EphA2 ectodomain. Nature of the test: SPR (Biacore 8k), Fab-capture, 37C.
Method: as §2, §3
The target in test [12] is T4, cyno EphA2 ectodomain. As to the kind of experiment: SPR (Biacore 8k), Fab-capture, 37C.
Method: as §2, §3
For test [13], the target named is T1, human EphA2 expressed on HKB-11 cells. As to the kind of experiment: flow cytometry on HKB-11 cells overexpressing EphA2; lot HA-13-AF39.
Method: as §1
Test [14] has as its target T2, human EphA2 ectodomain. Nature of the test: SPR (Biacore 8k), Fab-capture, 37C, 1:1 model; *low binding signal.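 Further: Anti-EphA2 IgG captured via immobilized anti-Fab, soluble EphA2 ectodomain as analyte at six twofold dilutions from 50 nM, HBS-EP+ pH 7.6 running buffer, double reference subtraction.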
Method: as §2, §3
Test [15] deals with T4, cyno EphA2 ectodomain. The description is as above.
Method: as §2, §3
In test [16] the target is T1, human EphA2 expressed on HKB-11 cells. Nature of the test: flow cytometry on HKB-11 cells overexpressing EphA2; lot PA-62-QD06.
Method: as §1
For test [17] the target is unchanged. As to the kind of experiment: flow cytometry on HKB-11 cells overexpressing EphA2; lot DA-62-QP06.
Method: as §1
Test [18] has the same target. As to the kind of experiment: flow cytometry on HKB-11 cells overexpressing EphA2; lot DE-39-AD34.
Method: as §1
For test [19] the target is unchanged. Nature of the test: flow cytometry on HKB-11 cells overexpressing EphA2; lot FE-76-NO13.
Method: as §1
Test [20] concerns the target T3, mouse EphA2 ectodomain. As to the kind of experiment: SPR (Biacore 8k), Fab-capture, 37C, 1:1 model; *low binding signal.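 Further: Anti-EphA2 IgG captured via immobilized anti-Fab, soluble EphA2 ectodomain as analyte at six twofold dilutions from 50 nM, HBS-EP+ pH 7.6 running buffer, double reference subtraction.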
Method: as §2, §3
Test [21] deals with T1, human EphA2 expressed on HKB-11 cells. As to the kind of experiment: flow cytometry on HKB-11 cells overexpressing EphA2; lot DC-69-ID09.
Method: as §1
Test [22] shares this target. Nature of the test: flow cytometry on HKB-11 cells overexpressing EphA2; lot PE-07-PN32.
Method: as §1
The target is the same in test [23]. Nature of the test: flow cytometry on HKB-11 cells overexpressing EphA2; lot HD-58-MP05.
Method: as §1
Test [24] shares this target. As to the kind of experiment: flow cytometry on HKB-11 cells overexpressing EphA2; lot HE-07-PV32.
Method: as §1

What is called koff is a measure of how fast the partners let go of each other. A high value points to a short-lived complex. Broadly, the kon is the second-order rate constant of association. Read a low kon as slower complex formation. For orientation: EC50 means the concentration needed to bring the measured effect to its halfway point. A low value points to an effect from little substance.

T3 sequence (Q03145 26-538): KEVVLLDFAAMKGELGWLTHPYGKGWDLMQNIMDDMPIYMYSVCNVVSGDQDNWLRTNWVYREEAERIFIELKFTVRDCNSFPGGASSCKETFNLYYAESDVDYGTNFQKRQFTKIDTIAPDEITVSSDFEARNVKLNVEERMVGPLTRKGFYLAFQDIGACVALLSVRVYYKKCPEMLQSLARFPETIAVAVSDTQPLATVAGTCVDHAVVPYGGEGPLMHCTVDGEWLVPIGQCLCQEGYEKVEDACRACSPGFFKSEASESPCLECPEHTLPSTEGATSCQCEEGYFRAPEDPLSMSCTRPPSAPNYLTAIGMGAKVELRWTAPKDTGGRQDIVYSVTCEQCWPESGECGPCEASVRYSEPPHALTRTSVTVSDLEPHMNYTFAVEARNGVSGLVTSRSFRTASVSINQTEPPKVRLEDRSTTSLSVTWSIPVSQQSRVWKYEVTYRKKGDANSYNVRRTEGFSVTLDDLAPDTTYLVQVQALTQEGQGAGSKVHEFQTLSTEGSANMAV
T4 sequence (Q1KL86 25-537): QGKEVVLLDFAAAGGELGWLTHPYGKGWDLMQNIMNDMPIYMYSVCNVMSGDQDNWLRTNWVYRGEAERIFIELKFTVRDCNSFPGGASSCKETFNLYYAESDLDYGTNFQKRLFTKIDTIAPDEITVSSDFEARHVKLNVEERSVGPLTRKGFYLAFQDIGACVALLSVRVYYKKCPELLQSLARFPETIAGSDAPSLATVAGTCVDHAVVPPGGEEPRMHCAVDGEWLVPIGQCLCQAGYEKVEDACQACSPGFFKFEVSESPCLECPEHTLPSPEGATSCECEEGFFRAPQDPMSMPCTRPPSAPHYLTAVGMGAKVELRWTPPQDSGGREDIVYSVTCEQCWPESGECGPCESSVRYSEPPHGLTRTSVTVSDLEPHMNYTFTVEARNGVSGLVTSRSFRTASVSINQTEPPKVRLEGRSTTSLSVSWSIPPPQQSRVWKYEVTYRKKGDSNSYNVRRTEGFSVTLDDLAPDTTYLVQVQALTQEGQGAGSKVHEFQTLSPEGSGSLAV
T2 sequence (P29317 24-537 limits assumed): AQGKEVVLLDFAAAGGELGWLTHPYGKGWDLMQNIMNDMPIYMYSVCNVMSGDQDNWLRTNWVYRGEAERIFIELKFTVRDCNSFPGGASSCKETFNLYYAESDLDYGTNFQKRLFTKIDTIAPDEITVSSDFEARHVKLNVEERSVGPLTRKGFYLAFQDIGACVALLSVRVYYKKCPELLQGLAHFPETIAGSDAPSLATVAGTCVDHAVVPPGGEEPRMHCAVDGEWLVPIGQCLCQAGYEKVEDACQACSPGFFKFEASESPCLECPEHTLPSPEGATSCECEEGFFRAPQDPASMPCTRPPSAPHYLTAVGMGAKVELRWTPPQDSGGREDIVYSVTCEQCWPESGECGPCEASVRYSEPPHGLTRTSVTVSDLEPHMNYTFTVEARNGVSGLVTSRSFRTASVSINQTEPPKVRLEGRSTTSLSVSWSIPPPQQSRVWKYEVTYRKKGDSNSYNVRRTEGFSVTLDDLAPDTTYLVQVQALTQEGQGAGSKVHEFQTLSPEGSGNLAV
T1 sequence (P29317 24-976 limits assumed): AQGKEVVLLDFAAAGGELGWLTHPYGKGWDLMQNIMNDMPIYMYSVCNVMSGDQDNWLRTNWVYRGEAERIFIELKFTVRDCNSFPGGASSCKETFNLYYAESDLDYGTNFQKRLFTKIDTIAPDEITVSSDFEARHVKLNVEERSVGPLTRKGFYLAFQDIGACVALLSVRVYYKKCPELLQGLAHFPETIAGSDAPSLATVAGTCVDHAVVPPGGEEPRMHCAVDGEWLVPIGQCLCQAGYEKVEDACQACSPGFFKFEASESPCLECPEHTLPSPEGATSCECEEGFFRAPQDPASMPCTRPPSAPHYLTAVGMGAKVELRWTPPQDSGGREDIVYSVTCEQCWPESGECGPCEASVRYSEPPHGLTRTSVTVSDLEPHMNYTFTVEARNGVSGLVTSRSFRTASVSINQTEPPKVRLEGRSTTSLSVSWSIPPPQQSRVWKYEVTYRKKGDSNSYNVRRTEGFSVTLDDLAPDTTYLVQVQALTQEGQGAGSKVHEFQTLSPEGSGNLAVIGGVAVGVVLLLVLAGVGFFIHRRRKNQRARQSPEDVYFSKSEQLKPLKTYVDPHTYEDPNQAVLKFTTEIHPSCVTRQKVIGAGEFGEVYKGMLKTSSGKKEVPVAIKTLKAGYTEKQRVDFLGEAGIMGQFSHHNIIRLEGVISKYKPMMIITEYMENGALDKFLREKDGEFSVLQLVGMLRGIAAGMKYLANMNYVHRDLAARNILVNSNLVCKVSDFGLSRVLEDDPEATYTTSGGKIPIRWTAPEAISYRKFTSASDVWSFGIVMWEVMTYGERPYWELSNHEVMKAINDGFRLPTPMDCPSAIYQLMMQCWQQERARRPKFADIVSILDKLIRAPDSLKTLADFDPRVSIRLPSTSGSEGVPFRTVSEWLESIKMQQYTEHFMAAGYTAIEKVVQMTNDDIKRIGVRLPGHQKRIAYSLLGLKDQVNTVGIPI

B1: 3207 (antibody, V domains shown)
VH: QVQLQQSGPGLVKPSQTLSLTCAISGDSVSSNSAAWSWIRQSPGRGLEWLGRIYYRSKWYNDYAVSVKSRITINPDTSKNQFSLQLNSVTPEDTAVYYCARLDHRYHEDTVYPGMDVWGQGTLVTVSS
VL: DIELTQPPSVSVAPGQTARISCSGDNLPAYTVTWYQQKPGQAPVLVIYDDSDRPSGIPERFSGSNSGNTATLTISGTQAEDEADYYCASWDPSSGVVFGGGTKLTVL
notes: the legend prints only '3207'; also called IgG (3207); IgG anti-chicken lysozyme antibody
Take B1: in test [1], the binding result was “no binding (tested: 200 nM)”.

B2: anti-EphA2 E152C S375C 1C1 (LC N92Q) hIgG1 (WT Heavy Chain) (antibody, V domains shown)
VH: EVQLLESGGGLVQPGGSLRLSCAASGFTFSHYMMAWVRQAPGKGLEWVSRIGPSGGPTHYADSVKGRFTISRDNSKNTLYLQMNSLRAEDTAVYYCAGYDSGYDYVAVAGPAEYFQHWGQGTLVTVSS
VL: DIQMTQSPSSLSASVGDRVTITCRASQSISTWLAWYQQKPGKAPKLLIYKASNLHTGVPSRFSGSGSGTEFSLTISGLQPDDFATYYCQQYQSYSRTFGQGTKVEIKR
notes: also called 1C1 N92Q IgG; DE-54-AX20
Regarding B2, the Kd is 196 nM with human EphA2 ectodomain [2]; 385 nM with mouse EphA2 ectodomain [3]; 230 nM with cyno EphA2 ectodomain [4]; 0.114 nM in test [5]; 0.089 nM and 0.138 nM in test [6]. The values for the koff with human EphA2 ectodomain [2], with mouse EphA2 ectodomain [3] and in the test with cyno EphA2 ectodomain [4] were 0.0531 s⁻¹, 0.0661 s⁻¹ and 0.0719 s⁻¹, respectively. Moreover, the kon with human EphA2 ectodomain [2] came out at 271000 M⁻¹ s⁻¹; with mouse EphA2 ectodomain [3], 172000 M⁻¹ s⁻¹; with cyno EphA2 ectodomain [4], 313000 M⁻¹ s⁻¹. For the same molecule, the EC50 in test [7] worked out at 3.83 nM; in test [8], 1.95 nM.

B3: anti-EphA2 E152C S375C 1C1 (LC G77S) hIgG1 (WT Heavy Chain) (antibody, V domains shown)
VH: B2 VH
VL: B2 VL with G77S, Q92N
notes: also called 1C1 G77S IgG; ZF-74-CQ11
Take B3: the Kd in the test with human EphA2 ectodomain [2] was 186 nM; with mouse EphA2 ectodomain [3], 369 nM; with cyno EphA2 ectodomain [4] it was 222 nM; in test [6], 0.171 nM. Moreover, the EC50 was 2.21 nM in test [9] and 3.73 nM in [10].

B4: anti-EphA2 E152C S375C 1C1 (LC N92A) hIgG1 (WT Heavy Chain) (antibody, V domains shown)
VH: B2 VH
VL: B2 VL with Q92A
notes: also called BC-56-WI24
With B4, the binding result with mouse EphA2 ectodomain [11] and with cyno EphA2 ectodomain [12] was “no binding (tested: EphA2 ectodomain titrated from 50 nM)” in each case.

B5: anti-EphA2_1C1_DAR4_LC_N92Q_S72T (antibody, human IgG1, kappa, V domains shown)
VH: B2 VH
VL: B2 VL with S72T
notes: also called HA-13-AF39
Take B5: the EC50 in [13] is 1.8 nM. This lies in the single-digit nanomolar range.

B6: anti-EphA2 E152C S375C 1C1 (LC S93V) hIgG1 (WT Heavy Chain) (antibody, V domains shown)
VH: B2 VH
VL: B2 VL with Q92N, S93V
notes: also called PA-62-QD06
As to B6, the off-rate constant (koff) worked out at 0.0792 s⁻¹ in the test with human EphA2 ectodomain [2], 0.0508 s⁻¹ with mouse EphA2 ectodomain [3] and 0.105 s⁻¹ in the test with cyno EphA2 ectodomain [4]. The figures for the kon with human EphA2 ectodomain [2], in the test with mouse EphA2 ectodomain [3] and with cyno EphA2 ectodomain [4] were 296000 M⁻¹ s⁻¹, 178000 M⁻¹ s⁻¹ and 428000 M⁻¹ s⁻¹, respectively. Further, the values for the Kd in the test with mouse EphA2 ectodomain [3], with human EphA2 ectodomain [14] and with cyno EphA2 ectodomain [15] were 286 nM, 268 nM and 246 nM, respectively. Moreover, a half-maximal response in test [16] (EC50) required 20.2 nM.

B7: anti-EphA2 E152C S375C 1C1 (LC S93Q) hIgG1 (WT Heavy Chain) (antibody, V domains shown)
VH: B2 VH
VL: B2 VL with Q92N, S93Q
notes: also called DA-62-QP06
Consider B7, for which, in the test with human EphA2 ectodomain [2], the Kd is 237 nM, the koff is 0.0635 s⁻¹ and the kon was found to be 268000 M⁻¹ s⁻¹. Also, in the test with mouse EphA2 ectodomain [3], the Kd is 335 nM, the koff stood at 0.0552 s⁻¹ and the kon was 165000 M⁻¹ s⁻¹. In the test with cyno EphA2 ectodomain [4], this molecule registered a Kd of 272 nM, a koff of 0.338 s⁻¹ and a kon of 1.24e+06 M⁻¹ s⁻¹. The same molecule registered an EC50 in test [17] of 2.13 nM.

B8: anti-EphA2 E152C S375C 1C1 (LC S72T) hIgG1 (WT Heavy Chain) (antibody, V domains shown)
VH: B2 VH
VL: B2 VL with S72T, Q92N
notes: also called 1C1 S72T IgG; FE-76-NO13
As to B8, the Kd in the test with human EphA2 ectodomain [2] is 216 nM; with mouse EphA2 ectodomain [3], 377 nM; with cyno EphA2 ectodomain [4] it was 230 nM; in test [5] it was 0.137 nM; in test [6], 0.132 nM and 0.143 nM. Besides, the koff in the test with human EphA2 ectodomain [2] amounted to 0.0518 s⁻¹; with mouse EphA2 ectodomain [3] it was 0.0512 s⁻¹; with cyno EphA2 ectodomain [4] it was 0.17 s⁻¹. In addition, the kon with human EphA2 ectodomain [2] turned out to be 240000 M⁻¹ s⁻¹; in the test with mouse EphA2 ectodomain [3], 136000 M⁻¹ s⁻¹; in the test with cyno EphA2 ectodomain [4], 737000 M⁻¹ s⁻¹. The results for the EC50 in test [18] and in test [19] were 2.12 nM and 3.19 nM, respectively.

B9: anti-EphA2 E152C S375C 1C1 (LC S10T_S72T_G77S) hIgG1 (WT Heavy Chain) (antibody, V domains shown)
VH: B2 VH
VL: B2 VL with S10T, S72T, G77S, Q92N
notes: also called 3x germ
Consider B9, for which the koff with human EphA2 ectodomain [2] was 0.0996 s⁻¹; with mouse EphA2 ectodomain [3] it was 0.0635 s⁻¹; with cyno EphA2 ectodomain [4] it was 0.121 s⁻¹. For the same molecule, the values for the kon with human EphA2 ectodomain [2], with mouse EphA2 ectodomain [3] and with cyno EphA2 ectodomain [4] were 250000 M⁻¹ s⁻¹, 193000 M⁻¹ s⁻¹ and 886000 M⁻¹ s⁻¹, respectively. Moreover, the Kd with human EphA2 ectodomain [14] was determined as 398 nM; in the test with mouse EphA2 ectodomain [20], 328 nM; with cyno EphA2 ectodomain [15] it was 137 nM. Further, in test [21], the EC50 was 23.9 nM.

B10: anti-EphA2_1C1_DAR4_LC_N92Q_S72T_G77S (antibody, human IgG1, kappa, V domains shown)
VH: B2 VH
VL: B2 VL with S72T, G77S
Regarding B10, the Kd in test [5] was 0.129 nM; in test [6] it was 0.124 nM and 0.134 nM. The molecule also yielded an EC50 in test [22] of 1.81 nM.

B11: anti-EphA2 E152C S375C 1C1 (LC S93A) hIgG1 (WT Heavy Chain) (antibody, V domains shown)
VH: B2 VH
VL: B2 VL with Q92N, S93A
notes: also called HD-58-MP05
As for B11, the Kd came out at 265 nM with human EphA2 ectodomain [2], 343 nM in the test with mouse EphA2 ectodomain [3] and 259 nM with cyno EphA2 ectodomain [4]. Also, the koff was 0.131 s⁻¹ with human EphA2 ectodomain [2], 0.0625 s⁻¹ with mouse EphA2 ectodomain [3] and 0.181 s⁻¹ with cyno EphA2 ectodomain [4]. In addition, the kon in the test with human EphA2 ectodomain [2] worked out at 493000 M⁻¹ s⁻¹; with mouse EphA2 ectodomain [3], 182000 M⁻¹ s⁻¹; with cyno EphA2 ectodomain [4] it was 697000 M⁻¹ s⁻¹. The molecule further registered an EC50 in test [23] of 3.44 nM.

B12: anti-EphA2_1C1_DAR4_LC_N92Q_G77S (antibody, human IgG1, kappa, V domains shown)
VH: B2 VH
VL: B2 VL with G77S
notes: also called HE-07-PV32
In test [24], B12 had an EC50 of 2.59 nM.
